In the test the target is single antigen M1 peptide segment (monkeypox virus M1 protein) (Monkeypox virus isolate MPXV_USA_2022_MA001) (UniProt M1LBP0). Kind of test: SPR. (SPR reads the build-up and loss of mass on a sensor chip optically.)

This passage reports Kd results from patent publication EP4653453A1.

Chain of UniProt M1LBP0 (M1LBP0 2-181 limits assumed): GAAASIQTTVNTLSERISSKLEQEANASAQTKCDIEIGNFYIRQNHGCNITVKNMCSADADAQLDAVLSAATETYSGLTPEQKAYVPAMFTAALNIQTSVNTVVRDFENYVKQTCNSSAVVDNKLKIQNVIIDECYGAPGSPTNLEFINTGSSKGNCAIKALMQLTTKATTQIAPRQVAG

As usually defined, the Kd is the constant that tells how readily two partners part at equilibrium. A high value points to lower affinity. The substance neutralizing antibody 7D11 returned a Kd of 3.3 nM.
